These results are taken from PMC2789664.

One series addresses GAPDH D32A (Homo sapiens, UniProt P04406 1-335, D35A). Description: EMSA. On the technique in general: A gel shift assay detects complexes by their altered migration in electrophoresis.
The next series addresses GAPDH C149A (Homo sapiens, UniProt P04406 1-335, C152A). The experiment in a line: EMSA.

GAPDH C149A, sequence (P04406 whole entry C152A): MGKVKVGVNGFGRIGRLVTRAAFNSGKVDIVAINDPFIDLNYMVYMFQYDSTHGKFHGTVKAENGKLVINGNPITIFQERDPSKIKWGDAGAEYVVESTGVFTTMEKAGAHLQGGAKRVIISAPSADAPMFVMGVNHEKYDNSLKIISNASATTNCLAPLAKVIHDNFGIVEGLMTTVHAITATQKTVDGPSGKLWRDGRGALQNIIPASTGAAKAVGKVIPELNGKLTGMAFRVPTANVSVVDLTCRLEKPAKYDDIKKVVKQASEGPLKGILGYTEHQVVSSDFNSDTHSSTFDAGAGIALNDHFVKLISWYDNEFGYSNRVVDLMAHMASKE
GAPDH D32A, sequence (P04406 whole entry D35A): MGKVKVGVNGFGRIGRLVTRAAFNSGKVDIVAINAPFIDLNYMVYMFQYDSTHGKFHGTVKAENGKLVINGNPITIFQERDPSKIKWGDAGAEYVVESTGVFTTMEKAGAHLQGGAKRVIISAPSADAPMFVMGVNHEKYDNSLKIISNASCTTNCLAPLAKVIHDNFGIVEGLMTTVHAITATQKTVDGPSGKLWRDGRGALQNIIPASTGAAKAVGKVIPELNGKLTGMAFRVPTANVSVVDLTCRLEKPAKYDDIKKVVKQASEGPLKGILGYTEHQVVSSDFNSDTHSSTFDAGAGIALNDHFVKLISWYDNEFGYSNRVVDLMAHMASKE

B1: ss-(AGGGTT)3 (ssDNA)
DNA: AGGGTTAGGGTTAGGGTT
As to B1, the binding result with GAPDH D32A and with GAPDH C149A was “no binding” throughout.
